For this assay, the target named is hPD-L1-Fc fusion protein (made in the filing, Example 1) (human) (UniProt Q9NZQ7). In words: SPR, Biacore X100, hPD-L1-Fc on CM5 chip, antibody in solution, 25 C. (Surface plasmon resonance follows binding to a sensor surface in real time, without labels.)

In general, Kd refers to the equilibrium constant for the complex coming apart. By koff is commonly meant the rate constant with which the complex falls apart. A low value points to a long-lived complex. A word on the kon: it is the rate constant with which the complex forms. Read a high kon as faster complex formation.

Chain of hPD-L1-Fc fusion protein (made in the filing, Example 1) (human) (Q9NZQ7 19-238 limits assumed): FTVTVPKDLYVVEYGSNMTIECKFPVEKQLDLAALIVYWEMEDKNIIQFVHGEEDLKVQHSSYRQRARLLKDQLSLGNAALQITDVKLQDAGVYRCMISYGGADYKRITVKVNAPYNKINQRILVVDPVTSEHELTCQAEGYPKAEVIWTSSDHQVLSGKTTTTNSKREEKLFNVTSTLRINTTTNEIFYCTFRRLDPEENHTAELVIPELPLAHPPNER

B1: B50-6 mAb (anti-hPD-L1, human IgG1, lambda) (antibody, part only; not given: human IgG1 and lambda constants, part only)
heavy, part: QVQLQQSGPGLVKPSQTLSLTCAISGDSVSSTKAAWYWIRQSPSRGLEWLGRTYFRSKWYNDYADSVKSRLTINPDTSKNQFSLQLKSVSPEDTAVYYCARGQYTAFDIWGQGTMVTVSS
light, part: QVQLVQSGAEVKKPASSVKVSCTASGGSFSTYAISWVRQAPGQGLEWMGGIIPIFGTTKYAQRFQGRVTITADESTTTAYMELSSLISDDTALYYCTTSRGFSYGWFDYWGQGTLVTVSS
As to B1, the Kd stood at 81.9 nM, the koff came out at 0.0137 s⁻¹ and the kon was found to be 167000 M⁻¹ s⁻¹.

For the origin of these results see patent US20210115143A1.
